B1: FAM164A (parent)
chain: YDPDYIQCPYCQRRFNENAADRHI
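Further: lentivirally expressed fusions sorted by FACS into six bins by GFP to DsRed ratio, PSI derived from sequencing read proportions per bin multiplied by bin number.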

This series covers variants of B1. Nature of the series: protein stability index of a GFP-peptide fusion (GPS, HEK-293T) (PSI 1-6); higher = more stable. As to conditions: c terminus: a fixed tail appended.
YDFDYIQCPYCQRRFNENAADRHI: the protein stability index is 4.02. Under YDQDYIQCPYCQRRFNENAADRHI stands 3.86; under YDMDYIQCPYCQRRFNENAADRHI, 4.4. As to YDIDYIQCPYCQRRFNENAADRHI, the protein stability index was 3.99. Under YDPDYIQCPYCQRRFNENAADRHF stands 3.88; under YDPDYIQCPYCQRRFNENAADRHD, 4.92; under YDPDYIQCPYCQRRFNENAADRHW, 2.89. For YDPDYIQCPYCQRRFNENAADRHL, the protein stability index was 3.88. As to YDPDYIRCPYCQRRFNENAADRHI, the protein stability index turned out to be 3.79. Under YDPDYISCPYCQRRFNENAADRHI stands 3.27; under YDPDYIDCPYCQRRFNENAADRHI, 2.64; under YDPDYIKCPYCQRRFNENAADRHI, 3.94. Under YDPDYIGCPYCQRRFNENAADRHI stands 2.54; under YDPDYILCPYCQRRFNENAADRHI, 3.48; under YDPDYIQCNYCQRRFNENAADRHI, 2.75.

As for YDPDYIQCQYCQRRFNENAADRHI, the protein stability index stood at 3.14. With YDPDYIQCPYCQRRFNENIADRHI, the protein stability index was determined as 4.02. Under YDPDYIQCPYCQRRFNENHADRHI stands 4.12. Under YDPDYIQCPYCQRRFNENYADRHI stands 3.58. Under YDPDYIQCPYCQRRFNENLADRHI stands 4.03; under YDPDYIQCPYCQRRFNENSADRHI, 4.59. In the case of YDPDYIQCPYCNRRFNENAADRHI, the protein stability index worked out at 4.05. As to YDPDYIQCPYCLRRFNENAADRHI, the protein stability index was found to be 4.9. Under YDPDYIQCPYCQRRFNENAADRYI stands 3.83. As for YDPDYIQCPYCQRRFNENAADRLI, the protein stability index is 3.9.

Consider YDPDYIQCPYCQRRFNENAADRQI, for which the protein stability index turned out to be 4.22. Under YDPDYIQCPYCQRRFNENAADRDI stands 4.81; under YDPDYIQCPYCQRRFIENAADRHI, 4.75; under YDPDYIQCPYCQRRFWENAADRHI, 4.61. YDPDYIQCPYCQRRFMENAADRHI: the protein stability index stood at 4.54. Turning to YDPDYIQCPYCQRRFCENAADRHI, the protein stability index worked out at 4.37. As to YDPDYIQCPYCQRRFRENAADRHI, the protein stability index is 5.19.

As to YDPDYIQCPYCQRRFEENAADRHI, the protein stability index amounted to 3.97. Under YDPVYIQCPYCQRRFNENAADRHI stands 3.84; under YDPDYIQCPYCQRRFNENARDRHI, 4.24; under YDPDYIQCPYCQRRFNENAPDRHI, 3.52. Under YDPDYIQCPYCQRRFNENADDRHI stands 4.25.

As for YDPDYIQCPYCQRRFNENAFDRHI, the protein stability index was determined as 3.87. Under YDPDYIQCPICQRRFNENAADRHI stands 3.15; under YDPDYIQCPLCQRRFNENAADRHI, 3.02. Under YDPDYIQCPRCQRRFNENAADRHI stands 2.99; under YDPDYIQCPDCQRRFNENAADRHI, 3.36; under YDPDYIQCPYCQRRFNKNAADRHI, 5.07. Under YDPDYIQCPYCQRRFNFNAADRHI stands 5.14; under YDPDYIQCPYCQRRFNINAADRHI, 5.23.

Take YDPDYIQCPYCQRRFNSNAADRHI: the protein stability index came to 4.69. Under YDPDYEQCPYCQRRFNENAADRHI stands 3.5. Consider YDPDYYQCPYCQRRFNENAADRHI, for which the protein stability index is 3.23. Under YDPDYKQCPYCQRRFNENAADRHI stands 3.71. For the variant YDPDYRQCPYCQRRFNENAADRHI, the protein stability index worked out at 3.63. Under YDPDYIQCPYCQRRPNENAADRHI stands 2.8. Under YDPDYIQCPYCQRRANENAADRHI stands 3.08; under YDPDYIQCPYCQRRLNENAADRHI, 3.77. Under YDPDYIQCPYCQRRVNENAADRHI stands 3.06. In the case of YDPDYIQCPYCQRRFNENAAMRHI, the protein stability index worked out at 3.94. Under YDPDYIQCPYCQRRFNENAAARHI stands 4.33. Consider YDPDYIQCPYCQRRFNENAAYRHI, for which the protein stability index was 4.03. As for YDPDYIQCPYCQRRFNENAARRHI, the protein stability index came to 4.07.

As to YDPDYIQCPYCQRRFNENAAIRHI, the protein stability index worked out at 4.63. In the case of YDPDYIQCPYCQRRFNENAADIHI, the protein stability index was 4.03. As to YDPDYIQCPYCQRRFNENAADHHI, the protein stability index amounted to 4.46. Under YDPDYIQCPYCQRRFNENAADKHI stands 4.51. Under YDPDYIQCPYCQRRFNENAADCHI stands 4.43. Under YDPDHIQCPYCQRRFNENAADRHI stands 3.69; under YDPDRIQCPYCQRRFNENAADRHI, 3.52; under YDPDMIQCPYCQRRFNENAADRHI, 4.9. YDPDGIQCPYCQRRFNENAADRHI: the protein stability index turned out to be 4.14. Under YDPDTIQCPYCQRRFNENAADRHI stands 4.14; under YDPDWIQCPYCQRRFNENAADRHI, 4.68. Under YDPDCIQCPYCQRRFNENAADRHI stands 4.01; under WDPDYIQCPYCQRRFNENAADRHI, 4.69. Under SDPDYIQCPYCQRRFNENAADRHI stands 4.54; under LDPDYIQCPYCQRRFNENAADRHI, 4.6. As to FDPDYIQCPYCQRRFNENAADRHI, the protein stability index amounted to 3.42. Under YDPDYIQCPYPQRRFNENAADRHI stands 3.65; under YDPDYIQCPYSQRRFNENAADRHI, 4.03; under YDPDYIQCPYMQRRFNENAADRHI, 3.65.

As to YDPDYIQCPYAQRRFNENAADRHI, the protein stability index was determined as 3.48. Under YDPDYIQCPYCQDRFNENAADRHI stands 3.16; under YDPDYIQCPYCQPRFNENAADRHI, 2.24; under YDPDYIQCPYCQKRFNENAADRHI, 4.32. Under YDPDYIQCPYCQMRFNENAADRHI stands 4.03; under YDPDYIQCPYCQCRFNENAADRHI, 3.17.

Consider YWPDYIQCPYCQRRFNENAADRHI, for which the protein stability index turned out to be 3.42.

For YLPDYIQCPYCQRRFNENAADRHI, the protein stability index turned out to be 2.69. Under YHPDYIQCPYCQRRFNENAADRHI stands 2.78. Under YFPDYIQCPYCQRRFNENAADRHI stands 3.52; under YDPDYIQCPYCQRHFNENAADRHI, 4. Under YDPDYIQCPYCQRSFNENAADRHI stands 4.11. Regarding YDPDYIQCPYCQRMFNENAADRHI, the protein stability index came out at 3.77.

As to YDPDYIQCPYCQRRFNEYAADRHI, the protein stability index is 3.72. Under YDPDYIQCPYCQRRFNEDAADRHI stands 4.5; under YDPDYIQCPYCQRRFNEKAADRHI, 4.11; under YDPDYIQWPYCQRRFNENAADRHI, 2.96.

For the origin of these results see the supplement of paper PMC10567573.
